Experiment [1] has as its target T1, human Nectin-4 extracellular antigen hNectin-4-His (human, UniProt Q96NY8 32-349).
T1 construct: C-terminal 8xHis tag included
T1 sequence: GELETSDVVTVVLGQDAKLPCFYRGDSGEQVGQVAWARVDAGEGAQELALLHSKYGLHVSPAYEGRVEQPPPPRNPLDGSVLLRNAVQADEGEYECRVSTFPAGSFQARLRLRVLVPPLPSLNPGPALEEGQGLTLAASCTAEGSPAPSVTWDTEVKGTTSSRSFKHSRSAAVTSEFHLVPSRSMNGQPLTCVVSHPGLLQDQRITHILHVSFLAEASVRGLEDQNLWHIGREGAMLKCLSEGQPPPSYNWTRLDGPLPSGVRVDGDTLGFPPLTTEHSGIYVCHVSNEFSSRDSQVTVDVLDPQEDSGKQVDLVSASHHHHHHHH
In words: ELISA, coated hNectin-4-His. The text has this:
(§1) The binding activity of the antibodies was detected by ELISA.
(ELISA stands for enzyme-linked immunosorbent assay.)

Experiment [2] concerns the target T2, human Nectin-4, full length on cells (human, UniProt Q96NY8 32-510).
T2 construct: whole, on cells; T-47D cells positive for Nectin-4 expression; also called Nectin-4 on T-47D cells; CHO-Nectin-4
T2 sequence (looked up): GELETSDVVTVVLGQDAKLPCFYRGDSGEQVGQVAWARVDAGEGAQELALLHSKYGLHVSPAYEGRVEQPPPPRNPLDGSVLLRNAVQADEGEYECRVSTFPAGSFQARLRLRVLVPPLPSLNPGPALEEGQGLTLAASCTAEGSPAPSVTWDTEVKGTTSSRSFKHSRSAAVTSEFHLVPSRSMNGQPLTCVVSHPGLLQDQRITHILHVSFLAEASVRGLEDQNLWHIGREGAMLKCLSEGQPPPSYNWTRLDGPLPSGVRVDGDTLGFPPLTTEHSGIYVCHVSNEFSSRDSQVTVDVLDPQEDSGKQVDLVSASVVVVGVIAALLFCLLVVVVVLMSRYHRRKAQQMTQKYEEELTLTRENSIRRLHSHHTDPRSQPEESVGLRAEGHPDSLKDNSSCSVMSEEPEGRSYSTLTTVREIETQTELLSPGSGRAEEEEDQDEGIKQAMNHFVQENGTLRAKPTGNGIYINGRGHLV
In words: flow cytometry, T-47D cells, antibody bound on ice, 0 h at 37 C. On the procedure: (§2) In this assay, the relative amount of antibodies remaining on the cell surface after co-incubation at 37° C. for a certain period of time was detected by FACS to reflect the endocytosis efficiency. The procedures are briefly described as follows: T-47D cells (human ductal breast cancer cells, derived from the Cell Bank of Chinese Academy of Sciences, Cat.No. TCHu 87); the antibodies of interest were adjusted to 10 µg/mL and co-incubated with the cells on ice for 1 h; the cells were washed 3 times with pre-cooled PBS, and then placed at 37° C. and incubated for 0 h, 2 h and 4 h; 0.2% N₃Na was added to stop the endocytosis reaction; the cells were washed with PBS thrice, followed by the addition of the PE-labeled anti-human Fc secondary antibody (Invitrogen 12-4998-82); the cells were incubated at 4° C. for 30 min; the red fluorescence signal was detected on a flow cytometer.

Experiment [3] has as its target T1, human Nectin-4 extracellular antigen …. In words: SPR, antibody on Protein A chip, hNectin-4-His analyte, 1:1 fit. The text has this:
(§3) In this study, the affinity of the antibodies for the human Nectin-4 extracellular antigen was detected by surface plasmon resonance (SPR) technique (BIAcore: GE Healthcare, T200).
On the technique in general: SPR reads the build-up and loss of mass on a sensor chip optically.

The target is the same in experiment [4]. The experiment in a line: SPR, antibody on Protein A chip, 1:1 fit.
From the text: as §3

Experiment [5] shares this target. The experiment in a line: ELISA, coated hNectin-4-His.
From the text: as §1
The source holds these as a separate data set.

In experiment [6] the target is T2, human Nectin-4, full length on cells. In words: flow cytometry, T-47D cells, antibody bound on ice, 0 h at 37 C. The procedure: as §2
The source holds these as a separate data set. On the technique in general: A flow cytometer gives signals particle by particle.

The record followed here is patent US20260144882A1 (BIO THERA SOLUTIONS, published 2026).

Read-outs that look alike come from different tables or passages of the source.

B1: antibody 1B4 (antibody, human IgG1, kappa, V domains shown)
VH: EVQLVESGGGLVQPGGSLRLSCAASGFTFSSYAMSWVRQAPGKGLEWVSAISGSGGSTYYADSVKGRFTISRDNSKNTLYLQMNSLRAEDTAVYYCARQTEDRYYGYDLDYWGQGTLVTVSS
VL: DIQMTQSPSSLSASVGDRVTITCRASQGISSYLAWYQQKPGKAPKLLIYAASSLQSGVPSRFSGSGSGTDFTLTISSLQPEDFATYYCQQHYTTPPTFGQGTKVEIKR
For orientation: EC50 means the midpoint of the concentration-response curve. The term Kd denotes the equilibrium constant for the complex coming apart. Lower therefore signals a tighter complex. Usually koff stands for a measure of how fast the partners let go of each other. Lower therefore signals a long-lived complex. For orientation: kon means a measure of how fast the partners come together. A lower kon goes with slow association. Molecule B1 showed an EC50 in experiment [1] of 0.025 µg/mL. Further, the “MFI (mean fluorescence intensity) 0 h” value in experiment [2] amounted to 108000 MFI. In experiment [3], this molecule yielded a Kd of 5.33 nM, a koff of 0.0032 s⁻¹ and an on-rate constant (kon) of 600000 M⁻¹ s⁻¹.

B2: antibody 1F3-1G11 (antibody, human IgG1, kappa, V domains shown)
VH: EVQLVESGGGLVQPGGSLRLSCAASGYSFTGYGMSWVRQAPGKGLEWVSGISPSGGTIGYADSVKGRFTISRDNSKNTLYLQMNSLRAEDTAVYYCARAELLAFDVYTASDYWGQGTLVTVSS
VL: DIQMTQSPSSLSASVGDRVTITCRASQGISSYLAWYQQKPGKAPKLLIYAASSLQSGVPSRFSGSGSGTDFTLTISSLQPEDFATYYCQQHYTTPPTFGQGTKVEIKR
In experiment [4], B2 showed a dissociation constant (Kd) of 0.815 nM, a dissociation rate constant (koff) of 0.00115 s⁻¹ and an association rate constant (kon) of 1.41e+06 M⁻¹ s⁻¹. Further, in experiment [5], the midpoint of the response, the EC50, lay at 0.007 µg/mL. Moreover, the “MFI (mean fluorescence intensity) 0 h” value in experiment [6] came out at 60500 MFI.

B3: antibody 1G7 (antibody, human IgG1, kappa, V domains shown)
VH: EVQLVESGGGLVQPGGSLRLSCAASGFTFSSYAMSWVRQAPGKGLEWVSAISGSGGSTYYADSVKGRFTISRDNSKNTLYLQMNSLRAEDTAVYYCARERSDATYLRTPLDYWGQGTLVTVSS
VL: DIQMTQSPSSLSASVGDRVTITCRASQGISSYLAWYQQKPGKAPKLLIYAASSLQSGVPSRFSGSGSGTDFTLTISSLQPEDFATYYCQQHYTTPPTFGQGTKVEIKR
For the molecule B3, the EC50 in experiment [1] amounted to 0.022 µg/mL. In experiment [3], this molecule registered a Kd of 16.7 nM, an off-rate constant (koff) of 0.00631 s⁻¹ and a kon of 377000 M⁻¹ s⁻¹.

B4: antibody 1F3-2F3 (antibody, human IgG1, kappa, V domains shown)
VH: EVQLVESGGGLVQPGGSLRLSCAASGFNFSDYGMSWVRQAPGKGLEWVSRIDWDGGNTRYADSVKGRFTISRDNSKNTLYLQMNSLRAEDTAVYYCARAELLAFDVYTASDYWGQGTLVTVSS
VL: DIQMTQSPSSLSASVGDRVTITCRASQGISSYLAWYQQKPGKAPKLLIYAASSLQSGVPSRFSGSGSGTDFTLTISSLQPEDFATYYCQQHYTTPPTFGQGTKVEIKR
On to B4, for which, in experiment [4], the Kd turned out to be 0.37 nM, the off-rate constant (koff) was determined as 0.000519 s⁻¹ and the kon is 1.4e+06 M⁻¹ s⁻¹. This molecule also had an EC50 in experiment [5] of 0.011 µg/mL. Besides, the “MFI (mean fluorescence intensity) 0 h” value in experiment [6] is 69000 MFI.

B5: antibody 1F3-2B1 (antibody, human IgG1, kappa, V domains shown)
VH: EVQLVESGGGLVQPGGSLRLSCAASGYNFDNYAMSWVRQAPGKGLEWVSGIKPDSATTYYADSVKGRFTISRDNSKNTLYLQMNSLRAEDTAVYYCARAELLAFDVYTASDYWGQGTLVTVSS
VL: DIQMTQSPSSLSASVGDRVTITCRASQGISSYLAWYQQKPGKAPKLLIYAASSLQSGVPSRFSGSGSGTDFTLTISSLQPEDFATYYCQQHYTTPPTFGQGTKVEIKR
Consider B5, for which, in experiment [4], the Kd is 0.241 nM, the off-rate (koff) stood at 0.000317 s⁻¹ and the on-rate (kon) was found to be 1.32e+06 M⁻¹ s⁻¹. The molecule further came in with a half-maximal effective concentration (EC50) in experiment [5] of 0.014 µg/mL. The “MFI (mean fluorescence intensity) 0 h” value in experiment [6] was found to be 59400 MFI.

B6: antibody 1F3-1E1 (antibody, human IgG1, kappa, V domains shown)
VH: EVQLVESGGGLVQPGGSLRLSCAASGFSFDDYAMSWVRQAPGKGLEWVSIIYPTGSTNYYADSVKGRFTISRDNSKNTLYLQMNSLRAEDTAVYYCARAELLAFDVYTASDYWGQGTLVTVSS
VL: DIQMTQSPSSLSASVGDRVTITCRASQGISSYLAWYQQKPGKAPKLLIYAASSLQSGVPSRFSGSGSGTDFTLTISSLQPEDFATYYCQQHYTTPPTFGQGTKVEIKR
In experiment [4], B6 gave a dissociation constant (Kd) of 0.141 nM, a koff of 0.000212 s⁻¹ and an on-rate (kon) of 1.51e+06 M⁻¹ s⁻¹. The same molecule registered an EC50 in experiment [5] of 0.017 µg/mL. In experiment [6], the “MFI (mean fluorescence intensity) 0 h” value stood at 73400 MFI.

B7: antibody 10A4 (antibody, human IgG1, kappa, V domains shown)
VH: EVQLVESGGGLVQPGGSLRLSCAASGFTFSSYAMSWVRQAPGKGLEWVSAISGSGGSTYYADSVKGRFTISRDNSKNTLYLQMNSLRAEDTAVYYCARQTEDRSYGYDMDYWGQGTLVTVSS
VL: DIQMTQSPSSLSASVGDRVTITCRASQGISSYLAWYQQKPGKAPKLLIYAASSLQSGVPSRFSGSGSGTDFTLTISSLQPEDFATYYCQQHYTTPPTFGQGTKVEIKR
Consider B7, for which the concentration for a half-maximal effect (EC50) in experiment [1] was determined as 0.041 µg/mL. For the same molecule, in experiment [2], the “MFI (mean fluorescence intensity) 0 h” value amounted to 107000 MFI. In experiment [3], the Kd was 6.71 nM, the koff came to 0.00232 s⁻¹ and the kon was 346000 M⁻¹ s⁻¹.

B8: antibody 1G12 (antibody, human IgG1, kappa, V domains shown)
VH: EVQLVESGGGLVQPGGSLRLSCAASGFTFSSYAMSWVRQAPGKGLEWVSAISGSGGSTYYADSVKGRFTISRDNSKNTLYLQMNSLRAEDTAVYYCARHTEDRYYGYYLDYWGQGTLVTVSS
VL: DIQMTQSPSSLSASVGDRVTITCRASQGISSYLAWYQQKPGKAPKLLIYAASSLQSGVPSRFSGSGSGTDFTLTISSLQPEDFATYYCQQHYTTPPTFGQGTKVEIKR
In experiment [1], B8 gave an EC50 of 0.073 µg/mL. For the same molecule, in experiment [3], the dissociation constant (Kd) is 8.61 nM, the koff came to 0.00464 s⁻¹ and the kon is 539000 M⁻¹ s⁻¹.

B9: antibody 1F3-2E8 (antibody, human IgG1, kappa, V domains shown)
VH: EVQLVESGGGLVQPGGSLRLSCAASGYSFSDYGMSWVRQAPGKGLEWVSWISPSKGSASYADSVKGRFTISRDNSKNTLYLQMNSLRAEDTAVYYCARAELLAFDVYTASDYWGQGTLVTVSS
VL: DIQMTQSPSSLSASVGDRVTITCRASQGISSYLAWYQQKPGKAPKLLIYAASSLQSGVPSRFSGSGSGTDFTLTISSLQPEDFATYYCQQHYTTPPTFGQGTKVEIKR
On to B9, for which, in experiment [4], the Kd worked out at 0.872 nM, the koff stood at 0.00102 s⁻¹ and the association rate constant (kon) turned out to be 1.17e+06 M⁻¹ s⁻¹. Besides, the EC50 in experiment [5] worked out at 0.009 µg/mL. In addition, the “MFI (mean fluorescence intensity) 0 h” value in experiment [6] is 58200 MFI.

B10: antibody 1F3-1B1 (antibody, human IgG1, kappa, V domains shown)
VH: EVQLVESGGGLVQPGGSLRLSCAASGFTFGTYGMSWVRQAPGKGLEWVSGIKPGDSTTYYADSVKGRFTISRDNSKNTLYLQMNSLRAEDTAVYYCARAELLAFDVYTASDYWGQGTLVTVSS
VL: DIQMTQSPSSLSASVGDRVTITCRASQGISSYLAWYQQKPGKAPKLLIYAASSLQSGVPSRFSGSGSGTDFTLTISSLQPEDFATYYCQQHYTTPPTFGQGTKVEIKR
On to B10, for which, in experiment [4], the affinity, expressed as Kd, was 0.17 nM; the dissociation rate constant (koff) came out at 0.000204 s⁻¹; the association rate constant (kon) stood at 1.2e+06 M⁻¹ s⁻¹. Moreover, the EC50 in experiment [5] was 0.016 µg/mL. Moreover, the “MFI (mean fluorescence intensity) 0 h” value in experiment [6] worked out at 65300 MFI.
